Source: doi:10.1101/2024.06.21.600001 (bioRxiv, 2024)

Experiments:
Experiment in all cases: immunostaining of cells or tissue
Conditions in all cases: one partner purified
[1] = molecular target: T1, Zaire ebolavirus glycoprotein (EBOV GP), full-length transmembrane, Mayinga (Zaire ebolavirus (EBOV), Mayinga, UniProt Q05320)
T1 construct: source: MDCK SIAT-1 cells expressing EBOV GP, on the cell surface

[2] = molecular target: T2, Sudan ebolavirus glycoprotein (SUDV GP), full-length transmembrane (Sudan ebolavirus (SUDV), UniProt Q7T9D9)
T2 construct: source: MDCK SIAT-1 cells expressing SUDV GP, on the cell surface

[3] = molecular target: T3, Bundibugyo ebolavirus glycoprotein (BDBV GP), full-length transmembrane (Bundibugyo ebolavirus (YP_003815435.1), UniProt B8XCN0)
T3 construct: source: MDCK SIAT-1 cells expressing BDBV GP, on the cell surface

[4] = molecular target: Tai Forest ebolavirus glycoprotein (TAFV GP) (Tai Forest ebolavirus (TAFV), UniProt Q66810)
[5] = molecular target: Reston ebolavirus glycoprotein (RESTV GP) (Reston ebolavirus, isolate ; …, UniProt Q66799)

Measured: binding result

B1: mAb 11886, recombinant rabbit IgG (antibody, V domains shown)
VH: QSVEESGGRLVTPGTPLTLTCIVSGFSLSNYYMSWVRQVPGKGLEWIGVIGWSGTSSYASWAKGRFTISKTASTTVDLKITSPTTEDTATYFCARVLYIGGGFNYYDAFDPWGPGTLVTVS
VL: DVVMTQTPASVSEPVGGTVTIKCQASQSIGSNLAWYQQKPGQPPKLLIYAASTLASGVPSRFKGSGSGTEFTLTISDLECADAATYYCQCTYYDSSYVYNNFGGGTEVVVK
notes: source: HEK293F, transfected, purified (Protein A); copies: 2 + 2
binds: all assays above

B2: mAb 11883, recombinant rabbit IgG (antibody, V domains shown)
VH: QEQLVESGGGLVQPEGSLTLTCTASGFSFSSNCWRCWVRQAPGKGLEWIACVCAGRSGGTTYYASWAKGRFTISKTSSPTVTLQMTSLTAADTATYFCARAGYDDYGDASFFNLWGPGTLVTVS
VL: AVVLTQTASPVSTPVGGTVTIKCQASQNIYSNLAWYQQKPGQPPKLLIYSASTLASGVPSRFKGSGSGTEYTLTISDLECADAATYYCQRYYYLSGSADNTFGGGTEVVVK
notes: as for B1
binds: all assays above
